The values that follow come from paper PMC4384732 (The Journal of Cell Biology, 2015).

The labels stand for the following.
B1: CCM3 (purified, polyhistidine tag removed by TEV protease) (natural protein)
chain: not shown
B2: N-terminally 6×His-tagged full-length CCM3 (natural protein)
chain: not shown
B3: GST-CCM2^PTB-ShortLinker (residues 51–238) (domain or fragment, human, UniProt Q9BSQ5 51-238, looked up)
chain: ERVEPDRLLSDYIEKEVKYLGQLTSIPGYLNPSSRTEILHFIDNAKRAHQLPGHLTQEHDAVLSLSAYNVKLAWRDGEDIILRVPIHDIAAVSYVRDDAAHLVVLKTAQDPGISPSQSLCAESSRGLSAGSLSESAVGPVEACCLVILAAESKVAAEELCCLLGQVFQVVYTESTIDFLDRAIFDGAS
B4: GST-CCM2^PTB-LongLinker (residues 51–251) (domain or fragment, human, UniProt Q9BSQ5 51-251, looked up)
chain: ERVEPDRLLSDYIEKEVKYLGQLTSIPGYLNPSSRTEILHFIDNAKRAHQLPGHLTQEHDAVLSLSAYNVKLAWRDGEDIILRVPIHDIAAVSYVRDDAAHLVVLKTAQDPGISPSQSLCAESSRGLSAGSLSESAVGPVEACCLVILAAESKVAAEELCCLLGQVFQVVYTESTIDFLDRAIFDGASTPTHHLSLHSDDS

The target of series [1] is B1. Put plainly: crystal structure.
Series [2] has as its target B1. Put plainly: BLI. Background: BLI is a label-free optical method that tracks binding on a fibre tip over time.
In series [3] the target is B2. Put plainly: pull-down.
Series [4] deals with the molecule itself. Put plainly: crystal structure.
For series [5], the target named is GST-CCM2^FL (residues 1–438) (human, UniProt Q9BSQ5 1-438). In words: pull-down.
Sequence of GST-CCM2^FL (residues 1–438) (Q9BSQ5 1-438): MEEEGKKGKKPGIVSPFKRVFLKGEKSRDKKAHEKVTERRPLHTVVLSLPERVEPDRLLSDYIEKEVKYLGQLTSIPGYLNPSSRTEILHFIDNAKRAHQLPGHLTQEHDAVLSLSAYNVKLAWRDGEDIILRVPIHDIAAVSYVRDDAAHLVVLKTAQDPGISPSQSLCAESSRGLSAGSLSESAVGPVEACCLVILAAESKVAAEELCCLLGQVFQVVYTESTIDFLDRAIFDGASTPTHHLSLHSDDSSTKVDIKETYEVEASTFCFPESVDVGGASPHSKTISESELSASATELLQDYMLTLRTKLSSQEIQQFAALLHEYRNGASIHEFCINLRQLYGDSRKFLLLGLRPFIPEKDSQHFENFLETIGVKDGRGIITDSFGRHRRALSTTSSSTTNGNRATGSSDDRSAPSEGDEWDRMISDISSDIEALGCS
Series [6] addresses B2. Put plainly: pull-down. This is another data set of the same source.

Regarding Ac-STIDFLDRAIFDGAST-NH2 [CCM2 LD–like motif peptide (224–239)], the binding result in series [1] is listed as “binds”.
For orientation: Kd means the concentration at which binding is half-saturated. Read a high Kd as lower affinity. Regarding STIDFLDRAIFDGAST [GST-CCM2-LD–like motif (residues 224–239)], the Kd in series [2] turned out to be 9.5 ± 2.5 µM; in series [3], 8.6 ± 2.2 µM.
Regarding B1, the binding result in series [4] is recorded as “binds”.
Turning to B2, the Kd in series [5] came to 8.8 ± 1.6 µM.
With B3, the binding result in series [6] is recorded as “binds”.
On to B4, for which the binding result in series [6] is given as “binds”.
